Source: the supplement of paper PMC7877785
± gives the uncertainty stated by the source.

Assay: self-splicing fitness, log relative to wild type (ln ratio); higher = more splicing; Tetrahymena group I intron in knt gene, E. coli kanamycin selection, DiMSum; sequences stand for … in CUCUCU…GGAGGGAAAAGUUAUCAGGCAUGCACCUGGUAGCUAGUCUUUAAACCAAUAGAUUGCAUCGGUUUAAAAGGCAAGACCGUCAAAUUGCGGGAAAGGGGUCAACAGCCGUUCAGUACCAAGUCUCAGGGGAAACUUUGAGAUGGCCUUGCAAAGGGUAUGGUAAUAAGCUGACGGACAUGGUCCUAACCACGCAGCCAAGUCCUAAGUCAACAGAUCUUCUGUUGAUAUGGAUGCAGUUCACAGACUAAAUGUCGGUCGGGGAAGAUGUAUUCUUCUCAUAAGAUAUAGUCGGACCUCUCCUUAAUGGGAGCUAGCGGAUGAAGUGAUGCAACACUGGAGCCGCUGGGAACUAAUUUGUAUGCGAAAGUAUAUUGAUUAGUUUUGGAGUACUCGUGGUCG
Procedure, shortened: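 Library with all eight P1ex-region intron nucleotides randomised, intron inside the knt kanamycin-resistance gene on pET-22b(+), in E. coli BL21(DE3). Cells grew overnight at 37°C or 30°C on LB agar with or without 25 μg/mL kanamycin (plus 100 μg/mL carbenicillin, 50 μM IPTG, 0.2% rhamnose), in six replicate transformations. Pooled colonies were amplicon-sequenced on Illumina HiSeq 2500. DiMSum fitness is the error-weighted combination of wild-type-normalised replicate fold changes, kanamycin versus none.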

| Sequence | self-splicing fitness (ln) (30 °C) | self-splicing fitness (ln) (37 °C) |
| --- | --- | --- |
| AACAAGCAAUAUUACGAUCC | -1.13 ± 0.077 | 0.0585 ± 0.1 |
| AACAAGCAAUAUUACGAUGU | -1.64 ± 0.077 | -0.411 ± 0.094 |
| AACAAGCAAUAUUACGCAUC | -2.41 ± 0.15 | -1.77 ± 0.18 |
| AACAAGCAAUAUUACGCGCC | -0.296 ± 0.15 | -0.317 ± 0.18 |
| AACAAGCAAUAUUACGCGGU | -3.69 ± 0.14 | -2.03 ± 0.11 |
| AACAAGCAAUAUUACGCUAU | -2.25 ± 0.075 | -1.52 ± 0.074 |
| AACAAGCAAUAUUACGGACU | -0.217 ± 0.063 | 0.775 ± 0.099 |
| AACAAGCAAUAUUACGGAUA | -3.95 ± 0.2 | -2.18 ± 0.12 |
| AACAAGCAAUAUUACGGAUG | -2.4 ± 0.08 | -2.37 ± 0.096 |
| AACAAGCAAUAUUACGGAUU | -1.38 ± 0.071 | -0.641 ± 0.077 |
| AACAAGCAAUAUUACGGCCC | -0.249 ± 0.12 | -0.0486 ± 0.2 |
| AACAAGCAAUAUUACGGCCU | 0.0767 ± 0.082 | 0.355 ± 0.1 |
| AACAAGCAAUAUUACGGCUU | -1.14 ± 0.081 | -0.539 ± 0.084 |
| AACAAGCAAUAUUACGGGGU | -3.36 ± 0.11 | -2.28 ± 0.13 |
| AACAAGCAAUAUUACGGUCG | -0.247 ± 0.08 | -0.152 ± 0.086 |
| AACAAGCAAUAUUACGGUGA | -0.546 ± 0.059 | -0.765 ± 0.073 |
| AACAAGCAAUAUUACGUACG | -1.65 ± 0.082 | -0.628 ± 0.094 |
| AACAAGCAAUAUUACGUCGC | -3.63 ± 0.14 | -2.21 ± 0.17 |
| AACAAGCAAUAUUACGUCUC | -3.51 ± 0.2 | -1.89 ± 0.16 |
| AACAAGCAAUAUUACGUGCA | -0.969 ± 0.048 | -0.28 ± 0.065 |
| AACAAGCAAUAUUACGUGCC | -0.971 ± 0.086 | -0.503 ± 0.12 |
| AACAAGCAAUAUUACGUGCU | -2.57 ± 0.16 | -1.51 ± 0.14 |
| AACAAGCAAUAUUACGUGGC | -3.61 ± 0.18 | -2.52 ± 0.14 |
| AACAAGCAAUAUUACGUUGC | -2.83 ± 0.18 | -3.21 ± 0.32 |

| Sequence | self-splicing fitness (ln) (30 °C) | self-splicing fitness (ln) (37 °C) |
| --- | --- | --- |
| AACCAGCAAUAUUACGAGCA | -1.02 ± 0.092 | -0.505 ± 0.1 |
| AACCAGCAAUAUUACGAGCC | -2.85 ± 0.17 | -1.72 ± 0.16 |
| AACCAGCAAUAUUACGAGUU | -3.37 ± 0.16 | -1.78 ± 0.14 |
| AACCAGCAAUAUUACGCAGU | -2.6 ± 0.11 | -1.35 ± 0.11 |
| AACCAGCAAUAUUACGCCAU | -2.81 ± 0.15 | -1.42 ± 0.11 |
| AACCAGCAAUAUUACGCCCC | -0.331 ± 0.12 | -0.517 ± 0.17 |
| AACCAGCAAUAUUACGCCGU | -1.03 ± 0.079 | 0.182 ± 0.1 |
| AACCAGCAAUAUUACGCCUA | -0.252 ± 0.076 | -0.557 ± 0.086 |
| AACCAGCAAUAUUACGCGCC | -0.668 ± 0.1 | -0.521 ± 0.12 |
| AACCAGCAAUAUUACGCGGA | -2.05 ± 0.093 | -0.49 ± 0.072 |
| AACCAGCAAUAUUACGCGUA | -0.386 ± 0.063 | -0.313 ± 0.073 |
| AACCAGCAAUAUUACGCUGC | -2.31 ± 0.18 | -3.1 ± 0.24 |
| AACCAGCAAUAUUACGCUGU | -3.49 ± 0.15 | -1.4 ± 0.095 |
| AACCAGCAAUAUUACGGGGG | -2.43 ± 0.095 | -1.02 ± 0.091 |
| AACCAGCAAUAUUACGGUCA | -0.301 ± 0.045 | 0.0924 ± 0.062 |
| AACCAGCAAUAUUACGUCUG | -3.9 ± 0.17 | -2.54 ± 0.16 |
| AACCAGCAAUAUUACGUGAA | -0.843 ± 0.074 | -0.516 ± 0.087 |
| AACCAGCAAUAUUACGUGGU | -3.19 ± 0.12 | -3.15 ± 0.17 |
| AACCAGCAAUAUUACGUUGC | -3.21 ± 0.12 | -3.05 ± 0.19 |
| AACGAGCAAUAUUACGAAUG | -4.03 ± 0.28 | -3.18 ± 0.25 |
| AACGAGCAAUAUUACGAAUU | -2.78 ± 0.11 | -2.16 ± 0.12 |
| AACGAGCAAUAUUACGACUA | -1.81 ± 0.21 | -0.213 ± 0.18 |
| AACGAGCAAUAUUACGAGAA | -1.87 ± 0.22 | -1.56 ± 0.33 |
| AACGAGCAAUAUUACGAUCC | -2.01 ± 0.38 |  |

| Sequence | self-splicing fitness (ln) (30 °C) | self-splicing fitness (ln) (37 °C) |
| --- | --- | --- |
| AACGAGCAAUAUUACGCAAU | -4.26 ± 0.36 | -2.45 ± 0.27 |
| AACGAGCAAUAUUACGCAUC | -3.65 ± 0.3 | -0.331 ± 0.18 |
| AACGAGCAAUAUUACGCCAG | -4.01 ± 0.37 | -1.56 ± 0.32 |
| AACGAGCAAUAUUACGCGUC | -3.01 ± 0.22 | -2.85 ± 0.38 |
| AACGAGCAAUAUUACGCUAC |  | -1.86 ± 0.31 |
| AACGAGCAAUAUUACGGCCA | -3.21 ± 0.18 | -1.37 ± 0.13 |
| AACGAGCAAUAUUACGGGCC | -4.29 ± 0.39 | -3.18 ± 0.47 |
| AACGAGCAAUAUUACGUCAU | -2.98 ± 0.1 | -2.44 ± 0.13 |
| AACGAGCAAUAUUACGUGUC | -2.08 ± 0.11 | -2.17 ± 0.23 |
| AACGAGCAAUAUUACGUUAA | -3.45 ± 0.36 | -2.2 ± 0.24 |
| AACGAGCAAUAUUACGUUCA | -2.32 ± 0.17 | -1.87 ± 0.23 |
| AACUAGCAAUAUUACGAAAU | -2.01 ± 0.09 | -0.94 ± 0.1 |
| AACUAGCAAUAUUACGAACC | -0.5 ± 0.2 | -0.373 ± 0.21 |
| AACUAGCAAUAUUACGAGAU | -2.52 ± 0.13 | -1.65 ± 0.14 |
| AACUAGCAAUAUUACGAGCC | -0.792 ± 0.47 | -1.17 ± 0.34 |
| AACUAGCAAUAUUACGCAAG | -3.14 ± 0.14 | -1.77 ± 0.15 |
| AACUAGCAAUAUUACGCACU | -0.218 ± 0.084 | -0.0139 ± 0.11 |
| AACUAGCAAUAUUACGCAUC | -2.73 ± 0.14 | -2.28 ± 0.22 |
| AACUAGCAAUAUUACGCCAA | -2.83 ± 0.21 | -1.63 ± 0.16 |
| AACUAGCAAUAUUACGCCGG | -1.63 ± 0.14 | -1.19 ± 0.17 |
| AACUAGCAAUAUUACGCCUG | -1.08 ± 0.12 | -1.43 ± 0.13 |
| AACUAGCAAUAUUACGCGAG | -1.82 ± 0.11 | -0.501 ± 0.12 |
| AACUAGCAAUAUUACGCGUC | -1.95 ± 0.12 | -1.65 ± 0.14 |
| AACUAGCAAUAUUACGGAUG | -2.26 ± 0.067 | -1.03 ± 0.072 |

| Sequence | self-splicing fitness (ln) (30 °C) | self-splicing fitness (ln) (37 °C) |
| --- | --- | --- |
| AACUAGCAAUAUUACGGCCU | -0.472 ± 0.09 | -0.0804 ± 0.095 |
| AACUAGCAAUAUUACGGUCG | -0.193 ± 0.062 | 0.193 ± 0.085 |
| AACUAGCAAUAUUACGGUGA | -1.58 ± 0.073 | -0.833 ± 0.099 |
| AACUAGCAAUAUUACGUAAU | -1.82 ± 0.098 | -0.948 ± 0.099 |
| AACUAGCAAUAUUACGUAGC | -4.04 ± 0.26 | -2.12 ± 0.21 |
| AACUAGCAAUAUUACGUCGC | -2.63 ± 0.11 | -1.08 ± 0.14 |
| AACUAGCAAUAUUACGUGGU | -3.36 ± 0.16 | -2.86 ± 0.23 |
| AACUAGCAAUAUUACGUUGC | -3.47 ± 0.17 | -1.9 ± 0.22 |
| AACUAGCAAUAUUACGUUGU | -3.51 ± 0.13 | -2.29 ± 0.12 |
| AAGAAGCAAUAUUACGACUC | 0.456 ± 0.13 | 0.487 ± 0.18 |
| AAGAAGCAAUAUUACGAUAG | -3.6 ± 0.28 | -1.87 ± 0.2 |
| AAGAAGCAAUAUUACGCAAA | -2.71 ± 0.24 | -0.539 ± 0.16 |
| AAGAAGCAAUAUUACGCAAC | -1.53 ± 0.12 | -2.1 ± 0.18 |
| AAGAAGCAAUAUUACGCACA | -0.267 ± 0.082 | -0.233 ± 0.097 |
| AAGAAGCAAUAUUACGCUCC | -2.37 ± 0.2 | -0.643 ± 0.18 |
| AAGAAGCAAUAUUACGGAAG | -2.77 ± 0.094 | -1.68 ± 0.11 |
| AAGAAGCAAUAUUACGGCAA | -0.128 ± 0.096 | -0.201 ± 0.13 |
| AAGAAGCAAUAUUACGGCGA | -0.584 ± 0.071 | -0.285 ± 0.088 |
| AAGAAGCAAUAUUACGGGGA | -3.37 ± 0.29 | -2.18 ± 0.17 |
| AAGAAGCAAUAUUACGGGGU | -4.04 ± 0.29 | -2.64 ± 0.2 |
| AAGAAGCAAUAUUACGGUAU | -2.08 ± 0.073 | -0.974 ± 0.084 |
| AAGAAGCAAUAUUACGGUCU | -0.564 ± 0.066 | -0.233 ± 0.1 |
| AAGAAGCAAUAUUACGGUGU | -1.99 ± 0.072 | -1.65 ± 0.086 |
